From patent US20050084890A1, “High-throughput screening assay for inhibitors of replication protein A” (priority 2003, published 2005)

What was measured:
[1] = molecular target: T1, RPA (Homo sapiens, UniProt P27694); assay: Homogeneous high-throughput fluorescence assay of RPA's DNA binding activity (96-well); settings: blind experiment; 5, 25 or 50 pmol competitor in 3 of 96 wells
T1 construct: made in house; host or cells: Escherichia coli
Description: Specifically, the percentage inhibition is calculated by taking the difference between the fluorescence values of reactions containing DNA and RPA and reactions containing DNA, RPA, and the test compound and dividing by the difference between the fluorescence values of reactions with DNA and RPA and the fluorescence of the DNA alone. This value is then multiplied by 100 to give percentage inhibition. The measurement is typically reported as fluorescence above the background fluorescence of the reporter alone. In one aspect the of the assay the DNA is single stranded DNA.
In accordance with one exemplary embodiment of the present invention, a homogeneous high-throughput screening assay is provided that employs a novel fluorescent reporter for measuring RPA's DNA binding activity. […] The fluorescence is then quantified in a 96-well plate fluorescence spectrophotometer. […]
RPA (10 pmol) was added to each well of a 96-well plate in a volume of 100 μl. […] Plates were read in a fluorometer. Fluorescence emission was read at 518 nm following excitation at […]. Fluorescence was read using a 96-well plate reader with a 2.5 nm excitation slit width and a 5 nm emission slit width. […] The data is presented as fluorescence above the background fluorescence of the reporter alone unless indicated otherwise. […]

[2] = molecular target: T2, Replication Protein A (RPA) (Homo sapiens, UniProt P27694;P15927;P35244 P27694:1-616,P15927:1-270,P35244:1-121); assay: competition; 5, 25 or 50 pmol unlabeled DNA inhibits RPA binding to the fluorescein-labeled reporter; settings: tags: expressed in E. coli from vector pdT11 (Marc Wold)
T2 sequence (P27694 whole entry, chain 1 of 3): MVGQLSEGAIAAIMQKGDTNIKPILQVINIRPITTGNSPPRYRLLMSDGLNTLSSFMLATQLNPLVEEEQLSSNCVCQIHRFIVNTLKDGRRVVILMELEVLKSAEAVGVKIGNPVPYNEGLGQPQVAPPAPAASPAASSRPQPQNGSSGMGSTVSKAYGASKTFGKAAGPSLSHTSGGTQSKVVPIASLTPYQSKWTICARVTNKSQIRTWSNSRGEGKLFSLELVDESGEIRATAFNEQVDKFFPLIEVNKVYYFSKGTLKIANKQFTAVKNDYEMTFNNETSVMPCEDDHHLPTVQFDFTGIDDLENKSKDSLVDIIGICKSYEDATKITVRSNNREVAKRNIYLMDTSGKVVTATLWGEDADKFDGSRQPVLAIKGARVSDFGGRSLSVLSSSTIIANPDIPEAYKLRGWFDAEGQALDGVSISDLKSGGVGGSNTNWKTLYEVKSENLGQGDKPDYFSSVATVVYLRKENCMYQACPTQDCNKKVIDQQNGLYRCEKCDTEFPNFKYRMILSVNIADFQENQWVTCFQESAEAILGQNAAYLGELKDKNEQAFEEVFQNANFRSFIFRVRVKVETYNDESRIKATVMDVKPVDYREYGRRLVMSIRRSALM
T2 sequence (P15927 whole entry, chain 2 of 3): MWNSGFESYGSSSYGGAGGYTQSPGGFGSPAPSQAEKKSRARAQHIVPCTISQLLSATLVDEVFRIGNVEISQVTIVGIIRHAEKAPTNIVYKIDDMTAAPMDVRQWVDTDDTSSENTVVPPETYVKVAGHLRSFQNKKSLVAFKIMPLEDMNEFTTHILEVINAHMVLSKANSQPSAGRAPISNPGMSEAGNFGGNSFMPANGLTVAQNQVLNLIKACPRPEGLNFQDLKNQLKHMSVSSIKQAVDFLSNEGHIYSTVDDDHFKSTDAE
T2 sequence (P35244 whole entry, chain 3 of 3): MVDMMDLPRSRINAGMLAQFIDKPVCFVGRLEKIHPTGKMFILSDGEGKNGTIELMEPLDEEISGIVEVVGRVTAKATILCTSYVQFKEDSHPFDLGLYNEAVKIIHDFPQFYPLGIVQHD
Description: RPA (10 pmol) was added to each well of a 96-well plate in a volume of 100 μl. Individual compounds were added to each well followed by the fluorescent reporter. The final reaction volume was 200 μl. Plates were read in a fluorometer. Fluorescence emission was read at 518 nm following excitation at […]. Fluorescence was read using a 96-well plate reader with a 2.5 nm excitation slit width and a 5 nm emission slit width. To calculate the percentage inhibition, the difference between the fluorescence values of reactions containing DNA and RPA and […] the test compound was divided by the difference between the fluorescence values of reactions with DNA and RPA and the fluorescence of the DNA alone. This value was then multiplied by 100 to give percentage inhibition. The data is presented as fluorescence above the background fluorescence of the reporter alone unless indicated otherwise.
To determine the effectiveness of this assay, a blind experiment was performed in which 3 of the 96 wells were added to 5, 25, or 50 pmol DNA substrate that has the exact sequence of the fluorescent DNA reporter without the fluorescein label. This DNA would compete for RPA, therefore acting as an inhibitor. […] The effect of DMSO on reaction sensitivity and reproducibility was assessed and the results indicated no difference in assay sensitivity.

[3] = molecular target: T2, Replication Protein A (RPA); assay: FP; polarization r max 0.23 without compound; saturation at about 15 pmol RPA in control as printed; settings: tags: expressed in E. coli from vector pdT11 (Marc Wold); label: fluorescein
Description: To more precisely determine if the method of inhibition was via an interaction with DNA or RPA, fluorescence polarization experiments were conducted. Fluorescence polarization is a measure of the rate at which an object tumbles or rotates in three-dimensional space. In this experiment, a fluorescein-labeled dT₃₀ substrate DNA is employed which results in a baseline polarization that is increased upon RPA binding; to the DNA and slowing its rotation. Using this method, it can be determined if the interaction of the compound was with DNA or RPA by constructing binding isotherms varying RPA at a fixed concentration of DNA with and without the addition of specific compounds. Using fluorescence polarization, compounds that exert their inhibitory effect through an interaction with the DNA were capable of being identified. Fluorescence polarization was performed by titrating RPA into a reaction containing fluorescein-labeled dT₃₀ DNA in the presence and absence of 20 μM compound (FIG. 5). […] This conclusion is further supported by experiments performed measuring the effect of compound 1:51 on polarization of the DNA in the absence of RPA. In these reactions, the r value of the DNA plus compound was slightly greater than the r value of the DNA without compound.

[4] = molecular target: T2, Replication Protein A (RPA); assay: fluorescence enhancement (ex 498 nm, em 518 nm); hyperbolic curve saturating at 1:1 RPA:DNA; settings: tags: expressed in E. coli from vector pdT11 (Marc Wold); label: 5' fluorescein
Description: In an effort to investigate the effect small molecules have on the interaction of RPA with DNA, an HTS assay was developed that relies on the use of a fluorescein-labeled ssDNA substrate. […] In an effort to optimize the detection, fluorescent excitation and emission wavelengths were tested along with varying slit widths and voltages. The optimal parameters were excitation at 498 nm and emission at […]. The optimal excitation and emission slit widths and voltage were 2.5 and 5 nm and 800 V, respectively.
In an attempt to test a large number of compounds simultaneously, the assay was converted to a 96-well plate format. In this assay, the fluorescein-labeled DNA was diluted into assay buffer and 100 μl were dispensed into each well. The fluorescence of each well was then read. Each well then received 100 μl RPA and the fluorescence of each well was read again. Percentage increase of fluorescence was then calculated from these two readings and is represented in FIG. 1.

T1 sequence (P27694 whole entry): as the sequence (P27694 whole entry, chain 1 of 3) above
T1 sequence (P15927 whole entry partner): as the sequence (P15927 whole entry, chain 2 of 3) above
T1 sequence (P35244 whole entry partner): as the sequence (P35244 whole entry, chain 3 of 3) above

With “DNA substrate that has the exact sequence of the fluorescent DNA reporter without the fluorescein label: unlabeled 30 base ssDNA of SEQ ID NO: 1 sequence, competes for RPA, acting as an inhibitor (DNA GGGGAAGTAAGGACGCGGAAAGGATAGGGG; DNA, backbone not given here; unlabeled competitor ssDNA)” the “inhibition of RPA binding to the fluorescein-labeled DNA” value [1] was “significant inhibition”.

GGGGAAGTAAGGACGCGGAAAGGATAGGGG (ssDNA) [30-base unlabeled competitor DNA]: binds [2].

TTTTTTTTTTTTTTTTTTTTTTTTTTTTTT (ssDNA, [NONE]) [dT30]: binds [3].

GGGGAAGTAAGGACGCGGAAAGGATAGGGG (ssDNA) [30-base purine-rich reporter DNA]: binds [4].
